Among the data in patent US20240018502A1 are EC50 of hC3 cleavage values, retold here.

This assay deals with plasma purified human complement protein C3 (human) (UniProt P01024). Nature of the assay: cell-based or functional assay.
Chain of plasma purified human complement protein C3 (human) (P01024 23-667, chain 1 of 2): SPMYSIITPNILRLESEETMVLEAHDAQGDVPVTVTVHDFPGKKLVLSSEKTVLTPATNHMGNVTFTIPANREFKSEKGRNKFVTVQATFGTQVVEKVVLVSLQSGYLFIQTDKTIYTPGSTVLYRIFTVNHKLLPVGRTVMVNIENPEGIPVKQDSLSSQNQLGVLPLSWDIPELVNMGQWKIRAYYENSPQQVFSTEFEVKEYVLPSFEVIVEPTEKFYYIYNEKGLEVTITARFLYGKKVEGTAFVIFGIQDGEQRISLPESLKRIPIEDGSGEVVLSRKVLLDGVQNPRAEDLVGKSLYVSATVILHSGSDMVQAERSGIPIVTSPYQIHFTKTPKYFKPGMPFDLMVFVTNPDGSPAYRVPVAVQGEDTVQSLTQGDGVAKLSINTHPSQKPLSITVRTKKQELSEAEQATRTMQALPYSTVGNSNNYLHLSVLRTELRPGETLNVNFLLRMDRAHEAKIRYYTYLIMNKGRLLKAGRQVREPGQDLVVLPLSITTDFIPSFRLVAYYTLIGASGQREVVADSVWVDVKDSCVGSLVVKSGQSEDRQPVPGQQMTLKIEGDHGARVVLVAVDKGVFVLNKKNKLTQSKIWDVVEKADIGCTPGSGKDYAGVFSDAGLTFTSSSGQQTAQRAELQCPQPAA
Chain of plasma purified human complement protein C3 (human) (P01024 672-1663, chain 2 of 2): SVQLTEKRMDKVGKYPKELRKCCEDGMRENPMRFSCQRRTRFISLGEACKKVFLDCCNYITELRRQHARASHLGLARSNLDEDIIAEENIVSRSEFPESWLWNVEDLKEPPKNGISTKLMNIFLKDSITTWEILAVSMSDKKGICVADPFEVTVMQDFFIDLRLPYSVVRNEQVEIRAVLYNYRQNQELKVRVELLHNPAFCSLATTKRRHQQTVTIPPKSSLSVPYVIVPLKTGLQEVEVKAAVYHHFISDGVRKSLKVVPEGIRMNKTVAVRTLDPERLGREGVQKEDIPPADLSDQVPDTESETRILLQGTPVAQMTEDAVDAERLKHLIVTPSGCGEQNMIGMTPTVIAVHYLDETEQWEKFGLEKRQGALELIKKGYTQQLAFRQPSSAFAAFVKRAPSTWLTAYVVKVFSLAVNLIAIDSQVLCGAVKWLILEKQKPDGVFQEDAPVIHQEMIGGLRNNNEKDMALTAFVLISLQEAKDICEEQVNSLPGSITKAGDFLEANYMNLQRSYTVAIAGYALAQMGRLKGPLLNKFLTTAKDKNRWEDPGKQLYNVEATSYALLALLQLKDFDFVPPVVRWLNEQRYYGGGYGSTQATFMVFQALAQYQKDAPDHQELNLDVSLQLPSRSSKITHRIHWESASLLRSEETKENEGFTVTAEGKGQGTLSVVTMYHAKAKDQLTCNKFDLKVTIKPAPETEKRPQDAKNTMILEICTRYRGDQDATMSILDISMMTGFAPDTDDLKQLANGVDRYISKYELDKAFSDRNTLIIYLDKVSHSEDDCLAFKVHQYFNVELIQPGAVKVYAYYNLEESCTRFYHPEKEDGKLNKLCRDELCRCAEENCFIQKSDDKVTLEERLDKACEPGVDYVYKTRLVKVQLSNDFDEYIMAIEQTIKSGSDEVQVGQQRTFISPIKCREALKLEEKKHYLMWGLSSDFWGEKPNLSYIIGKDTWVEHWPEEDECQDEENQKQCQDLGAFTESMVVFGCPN

B1: MTSP-1 I41R/F97T/ins97aE/T98G/F99L/C122S/G151N/Q175I/Q192E (enzyme)
chain: VVGGTDADEGEWPWQVSLHALGQGHRCGASLISPNWLVSAAHCYIDDRGFRYSDPTQWTAFLGLHDQSQRSAPGVQERRLKRIISHPFFNDTEGLDYDIALLELEKPAEYSSMVRPISLPDASHVFPAGKAIWVTGWGHTQYGGTNALILQKGEIRVINQTTCENLLPQIITPRMMCVGFLSGGVDSCEGDSGGPLSSVEADGRIFQAGVVSWGDGCAQRNKPGVYTRLPLFRDWIKENTGV
For the molecule B1, the EC50 of hC3 cleavage worked out at 1030 nM.

B2: MTSP-1 ins97aD/F97Q/T98G/F99L/C122S/Q175L/Q192E/D217F/K224S (enzyme)
chain: VVGGTDADEGEWPWQVSLHALGQGHICGASLISPNWLVSAAHCYIDDRGFRYSDPTQWTAFLGLHDQSQRSAPGVQERRLKRIISHPFFNDQDGLDYDIALLELEKPAEYSSMVRPISLPDASHVFPAGKAIWVTGWGHTQYGGTGALILQKGEIRVINQTTCENLLPQLITPRMMCVGFLSGGVDSCEGDSGGPLSSVEADGRIFQAGVVSWGFGCAQRNSPGVYTRLPLFRDWIKENTGV
For the molecule B2, the EC50 of hC3 cleavage worked out at 5560 nM.

B3: MTSP-1 F97N/ins97aT/T98Y/F99N/C122S (enzyme)
chain: VVGGTDADEGEWPWQVSLHALGQGHICGASLISPNWLVSAAHCYIDDRGFRYSDPTQWTAFLGLHDQSQRSAPGVQERRLKRIISHPFFNDNTYNDYDIALLELEKPAEYSSMVRPISLPDASHVFPAGKAIWVTGWGHTQYGGTGALILQKGEIRVINQTTCENLLPQQITPRMMCVGFLSGGVDSCQGDSGGPLSSVEADGRIFQAGVVSWGDGCAQRNKPGVYTRLPLFRDWIKENTGV
B3 showed an EC50 of hC3 cleavage of 184 nM.

B4: MTSP-1 ins97aN/F97H/T98D/F99L/C122S/Q192E/D217Q/K224S (enzyme)
chain: VVGGTDADEGEWPWQVSLHALGQGHICGASLISPNWLVSAAHCYIDDRGFRYSDPTQWTAFLGLHDQSQRSAPGVQERRLKRIISHPFFNDHNDLDYDIALLELEKPAEYSSMVRPISLPDASHVFPAGKAIWVTGWGHTQYGGTGALILQKGEIRVINQTTCENLLPQQITPRMMCVGFLSGGVDSCEGDSGGPLSSVEADGRIFQAGVVSWGQGCAQRNSPGVYTRLPLFRDWIKENTGV
Take B4: the EC50 of hC3 cleavage is 2750 nM.

B5: MTSP-1 F97M/ins97aD/T98D/F99L/C122S/Q192T (enzyme)
chain: VVGGTDADEGEWPWQVSLHALGQGHICGASLISPNWLVSAAHCYIDDRGFRYSDPTQWTAFLGLHDQSQRSAPGVQERRLKRIISHPFFNDMDDLDYDIALLELEKPAEYSSMVRPISLPDASHVFPAGKAIWVTGWGHTQYGGTGALILQKGEIRVINQTTCENLLPQQITPRMMCVGFLSGGVDSCTGDSGGPLSSVEADGRIFQAGVVSWGDGCAQRNKPGVYTRLPLFRDWIKENTGV
B5 had an EC50 of hC3 cleavage of 151 nM.

B6: MTSP-1 I41R/F97T/ins97aE/T98G/F99L/C122S/G151D/Q175I/Q192E (enzyme)
chain: VVGGTDADEGEWPWQVSLHALGQGHRCGASLISPNWLVSAAHCYIDDRGFRYSDPTQWTAFLGLHDQSQRSAPGVQERRLKRIISHPFFNDTEGLDYDIALLELEKPAEYSSMVRPISLPDASHVFPAGKAIWVTGWGHTQYGGTDALILQKGEIRVINQTTCENLLPQIITPRMMCVGFLSGGVDSCEGDSGGPLSSVEADGRIFQAGVVSWGDGCAQRNKPGVYTRLPLFRDWIKENTGV
With B6, the EC50 of hC3 cleavage was determined as 2070 nM.

B7: MTSP-1 ins97aG/F97N/T98D/F99L/C122S/Q192E/D217H/K224A (enzyme)
chain: VVGGTDADEGEWPWQVSLHALGQGHICGASLISPNWLVSAAHCYIDDRGFRYSDPTQWTAFLGLHDQSQRSAPGVQERRLKRIISHPFFNDNGDLDYDIALLELEKPAEYSSMVRPISLPDASHVFPAGKAIWVTGWGHTQYGGTGALILQKGEIRVINQTTCENLLPQQITPRMMCVGFLSGGVDSCEGDSGGPLSSVEADGRIFQAGVVSWGHGCAQRNAPGVYTRLPLFRDWIKENTGV
B7: the EC50 of hC3 cleavage worked out at 2790 nM.

B8: MTSP-1 I41R/ins97aE/F97T/T98G/F99L/C122S/G151N/Q175S/Q192D (enzyme)
chain: VVGGTDADEGEWPWQVSLHALGQGHRCGASLISPNWLVSAAHCYIDDRGFRYSDPTQWTAFLGLHDQSQRSAPGVQERRLKRIISHPFFNDTEGLDYDIALLELEKPAEYSSMVRPISLPDASHVFPAGKAIWVTGWGHTQYGGTNALILQKGEIRVINQTTCENLLPQSITPRMMCVGFLSGGVDSCDGDSGGPLSSVEADGRIFQAGVVSWGDGCAQRNKPGVYTRLPLFRDWIKENTGV
Take B8: the EC50 of hC3 cleavage came out at 2080 nM.

B9: MTSP-1 ins97aD/F97G/T98N/F99L/C122S/Q192E/D217Y/K224R (enzyme)
chain: VVGGTDADEGEWPWQVSLHALGQGHICGASLISPNWLVSAAHCYIDDRGFRYSDPTQWTAFLGLHDQSQRSAPGVQERRLKRIISHPFFNDGDNLDYDIALLELEKPAEYSSMVRPISLPDASHVFPAGKAIWVTGWGHTQYGGTGALILQKGEIRVINQTTCENLLPQQITPRMMCVGFLSGGVDSCEGDSGGPLSSVEADGRIFQAGVVSWGYGCAQRNRPGVYTRLPLFRDWIKENTGV
The molecule B9 returned an EC50 of hC3 cleavage of 9870 nM.

B10: MTSP-1 F97Q/ins97aT/T98M/C122S/Q192E/D217R/K224L (enzyme)
chain: VVGGTDADEGEWPWQVSLHALGQGHICGASLISPNWLVSAAHCYIDDRGFRYSDPTQWTAFLGLHDQSQRSAPGVQERRLKRIISHPFFNDQTMFDYDIALLELEKPAEYSSMVRPISLPDASHVFPAGKAIWVTGWGHTQYGGTGALILQKGEIRVINQTTCENLLPQQITPRMMCVGFLSGGVDSCEGDSGGPLSSVEADGRIFQAGVVSWGRGCAQRNLPGVYTRLPLFRDWIKENTGV
Molecule B10 displayed an EC50 of hC3 cleavage of 2450 nM.

B11: MTSP-1 I41R/F97T/ins97aE/T98G/F99L/C122S/G151N/Q175I/Q192D (enzyme)
chain: VVGGTDADEGEWPWQVSLHALGQGHRCGASLISPNWLVSAAHCYIDDRGFRYSDPTQWTAFLGLHDQSQRSAPGVQERRLKRIISHPFFNDTEGLDYDIALLELEKPAEYSSMVRPISLPDASHVFPAGKAIWVTGWGHTQYGGTNALILQKGEIRVINQTTCENLLPQIITPRMMCVGFLSGGVDSCDGDSGGPLSSVEADGRIFQAGVVSWGDGCAQRNKPGVYTRLPLFRDWIKENTGV
For the molecule B11, the EC50 of hC3 cleavage is 8370 nM.

B12: MTSP-1 ins97aE/F97Y/T98S/F99L/C122S/Q192T/D217Q/K224R (enzyme)
chain: VVGGTDADEGEWPWQVSLHALGQGHICGASLISPNWLVSAAHCYIDDRGFRYSDPTQWTAFLGLHDQSQRSAPGVQERRLKRIISHPFFNDYESLDYDIALLELEKPAEYSSMVRPISLPDASHVFPAGKAIWVTGWGHTQYGGTGALILQKGEIRVINQTTCENLLPQQITPRMMCVGFLSGGVDSCTGDSGGPLSSVEADGRIFQAGVVSWGQGCAQRNRPGVYTRLPLFRDWIKENTGV
Take B12: the EC50 of hC3 cleavage worked out at 249 nM.

B13: MTSP-1 I41R/ins97aE/F97T/T98G/F99L/C122S/G151D/Q175I/Q192D (enzyme)
chain: VVGGTDADEGEWPWQVSLHALGQGHRCGASLISPNWLVSAAHCYIDDRGFRYSDPTQWTAFLGLHDQSQRSAPGVQERRLKRIISHPFFNDTEGLDYDIALLELEKPAEYSSMVRPISLPDASHVFPAGKAIWVTGWGHTQYGGTDALILQKGEIRVINQTTCENLLPQIITPRMMCVGFLSGGVDSCDGDSGGPLSSVEADGRIFQAGVVSWGDGCAQRNKPGVYTRLPLFRDWIKENTGV
Molecule B13 came in with an EC50 of hC3 cleavage of 1750 nM.

B14: MTSP-1 ins97aV/F97Q/T98P/F99L/C122S/Q175F/Q192D (enzyme)
chain: VVGGTDADEGEWPWQVSLHALGQGHICGASLISPNWLVSAAHCYIDDRGFRYSDPTQWTAFLGLHDQSQRSAPGVQERRLKRIISHPFFNDQVPLDYDIALLELEKPAEYSSMVRPISLPDASHVFPAGKAIWVTGWGHTQYGGTGALILQKGEIRVINQTTCENLLPQFITPRMMCVGFLSGGVDSCDGDSGGPLSSVEADGRIFQAGVVSWGDGCAQRNKPGVYTRLPLFRDWIKENTGV
On to B14, for which the EC50 of hC3 cleavage came to 248 nM.

B15: MTSP-1 ins97aV/F97D/T98P/F99L/C122S/Q192G (enzyme)
chain: VVGGTDADEGEWPWQVSLHALGQGHICGASLISPNWLVSAAHCYIDDRGFRYSDPTQWTAFLGLHDQSQRSAPGVQERRLKRIISHPFFNDDVPLDYDIALLELEKPAEYSSMVRPISLPDASHVFPAGKAIWVTGWGHTQYGGTGALILQKGEIRVINQTTCENLLPQQITPRMMCVGFLSGGVDSCGGDSGGPLSSVEADGRIFQAGVVSWGDGCAQRNKPGVYTRLPLFRDWIKENTGV
For B15, the EC50 of hC3 cleavage was 53.5 nM.

B16: MTSP-1 ins97aD/F97T/T98S/F99L/C122S/Q192E/D217Y/K224R (enzyme)
chain: VVGGTDADEGEWPWQVSLHALGQGHICGASLISPNWLVSAAHCYIDDRGFRYSDPTQWTAFLGLHDQSQRSAPGVQERRLKRIISHPFFNDTDSLDYDIALLELEKPAEYSSMVRPISLPDASHVFPAGKAIWVTGWGHTQYGGTGALILQKGEIRVINQTTCENLLPQQITPRMMCVGFLSGGVDSCEGDSGGPLSSVEADGRIFQAGVVSWGYGCAQRNRPGVYTRLPLFRDWIKENTGV
Molecule B16 gave an EC50 of hC3 cleavage of 5000 nM.

B17: MTSP-1 ins97aA/F97G/T98N/F99L/C122S/Q175M/Q192T/K224A (enzyme)
chain: VVGGTDADEGEWPWQVSLHALGQGHICGASLISPNWLVSAAHCYIDDRGFRYSDPTQWTAFLGLHDQSQRSAPGVQERRLKRIISHPFFNDGANLDYDIALLELEKPAEYSSMVRPISLPDASHVFPAGKAIWVTGWGHTQYGGTGALILQKGEIRVINQTTCENLLPQMITPRMMCVGFLSGGVDSCTGDSGGPLSSVEADGRIFQAGVVSWGDGCAQRNAPGVYTRLPLFRDWIKENTGV
B17: the EC50 of hC3 cleavage amounted to 200 nM.

B18: MTSP-1 H40R/I41H/Y60gF/F97D/F99L/C122S/Q175K/Q192G/D217R/K224Q (enzyme)
chain: VVGGTDADEGEWPWQVSLHALGQGRHCGASLISPNWLVSAAHCYIDDRGFRFSDPTQWTAFLGLHDQSQRSAPGVQERRLKRIISHPFFNDDTLDYDIALLELEKPAEYSSMVRPISLPDASHVFPAGKAIWVTGWGHTQYGGTGALILQKGEIRVINQTTCENLLPQKITPRMMCVGFLSGGVDSCGGDSGGPLSSVEADGRIFQAGVVSWGRGCAQRNQPGVYTRLPLFRDWIKENTGV
For B18, the EC50 of hC3 cleavage is 93.4 nM.

B19: MTSP-1 H40R/I41H/F97D/F99L/C122S/G151N/Q192N/D217L/K224R (enzyme)
chain: VVGGTDADEGEWPWQVSLHALGQGRHCGASLISPNWLVSAAHCYIDDRGFRYSDPTQWTAFLGLHDQSQRSAPGVQERRLKRIISHPFFNDDTLDYDIALLELEKPAEYSSMVRPISLPDASHVFPAGKAIWVTGWGHTQYGGTNALILQKGEIRVINQTTCENLLPQQITPRMMCVGFLSGGVDSCNGDSGGPLSSVEADGRIFQAGVVSWGLGCAQRNRPGVYTRLPLFRDWIKENTGV
In the case of B19, the EC50 of hC3 cleavage is 346 nM.

B20: MTSP-1 H40R/I41H/F97D/F99L/C122S/G151N/Q192H/D217K/K224A (enzyme)
chain: VVGGTDADEGEWPWQVSLHALGQGRHCGASLISPNWLVSAAHCYIDDRGFRYSDPTQWTAFLGLHDQSQRSAPGVQERRLKRIISHPFFNDDTLDYDIALLELEKPAEYSSMVRPISLPDASHVFPAGKAIWVTGWGHTQYGGTNALILQKGEIRVINQTTCENLLPQQITPRMMCVGFLSGGVDSCHGDSGGPLSSVEADGRIFQAGVVSWGKGCAQRNAPGVYTRLPLFRDWIKENTGV
Take B20: the EC50 of hC3 cleavage is 137 nM.
